Values of other authors as cited in PMC7687155.

Molecular target: Sep15 (Homo sapiens) (UniProt O60613)
Sequence (O60613 32-165): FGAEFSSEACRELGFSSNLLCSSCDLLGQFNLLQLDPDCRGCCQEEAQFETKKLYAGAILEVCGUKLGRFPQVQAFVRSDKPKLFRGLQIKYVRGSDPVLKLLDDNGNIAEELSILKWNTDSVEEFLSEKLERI

Sequence of UGGT1 (Q9NYU2 43-1555): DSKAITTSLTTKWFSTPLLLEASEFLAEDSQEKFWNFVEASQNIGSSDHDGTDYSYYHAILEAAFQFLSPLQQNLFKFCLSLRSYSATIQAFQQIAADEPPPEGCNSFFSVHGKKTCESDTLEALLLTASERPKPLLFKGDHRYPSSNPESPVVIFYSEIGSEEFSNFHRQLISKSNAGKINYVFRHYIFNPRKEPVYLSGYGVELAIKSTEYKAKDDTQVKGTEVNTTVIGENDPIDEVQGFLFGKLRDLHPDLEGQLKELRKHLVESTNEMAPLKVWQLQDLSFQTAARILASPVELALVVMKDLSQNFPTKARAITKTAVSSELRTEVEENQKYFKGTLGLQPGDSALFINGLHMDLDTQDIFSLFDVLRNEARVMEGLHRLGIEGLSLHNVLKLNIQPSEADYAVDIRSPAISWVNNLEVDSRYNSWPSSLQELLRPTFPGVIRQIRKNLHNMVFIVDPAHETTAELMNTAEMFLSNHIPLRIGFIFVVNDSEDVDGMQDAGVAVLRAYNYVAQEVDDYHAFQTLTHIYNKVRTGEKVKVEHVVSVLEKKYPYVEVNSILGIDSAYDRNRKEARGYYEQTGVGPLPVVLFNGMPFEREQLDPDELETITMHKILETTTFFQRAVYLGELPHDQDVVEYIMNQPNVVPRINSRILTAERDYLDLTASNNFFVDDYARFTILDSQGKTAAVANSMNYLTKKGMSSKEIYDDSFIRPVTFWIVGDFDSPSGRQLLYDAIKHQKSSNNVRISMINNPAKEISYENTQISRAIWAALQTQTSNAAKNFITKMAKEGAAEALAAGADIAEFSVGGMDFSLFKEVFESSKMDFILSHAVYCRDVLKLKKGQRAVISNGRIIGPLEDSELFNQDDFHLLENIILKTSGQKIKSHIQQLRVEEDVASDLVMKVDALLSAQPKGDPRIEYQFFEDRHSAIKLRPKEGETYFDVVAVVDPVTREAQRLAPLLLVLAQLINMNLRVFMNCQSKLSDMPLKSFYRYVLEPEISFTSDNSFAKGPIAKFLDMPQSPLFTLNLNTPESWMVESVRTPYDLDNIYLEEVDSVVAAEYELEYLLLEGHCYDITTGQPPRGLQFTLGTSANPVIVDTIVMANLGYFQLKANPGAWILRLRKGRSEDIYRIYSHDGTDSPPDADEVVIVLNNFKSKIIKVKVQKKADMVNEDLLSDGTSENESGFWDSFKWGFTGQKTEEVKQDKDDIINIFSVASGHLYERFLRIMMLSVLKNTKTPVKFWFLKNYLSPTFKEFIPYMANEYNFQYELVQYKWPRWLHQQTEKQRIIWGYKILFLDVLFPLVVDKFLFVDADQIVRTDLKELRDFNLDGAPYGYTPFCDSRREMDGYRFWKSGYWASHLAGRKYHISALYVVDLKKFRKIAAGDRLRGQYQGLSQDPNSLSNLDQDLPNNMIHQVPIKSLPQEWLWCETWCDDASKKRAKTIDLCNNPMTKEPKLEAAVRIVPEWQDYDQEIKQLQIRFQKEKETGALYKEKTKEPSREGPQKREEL

Kd: 20 nM
Substance: UGGT1 (from UniProt Q9NYU2)
